Data as given in US7384632B2, “Agonist anti-trk-C monoclonal antibodies” (Genentech, Inc., priority 2000, dated 2008).
Changes are numbered by the printed parent chain. Where two headings read alike, the source gives them in different places.

Tests used:
[1] = target: T1, p75^NTR (LNGFR, p75) (Homo sapiens, UniProt P08138); details: equilibrium binding studies, neurotrophin-responsive neurons; cited from earlier work
T1 construct: host or cells: neurotrophin-responsive neurons
T1 sequence (P08138 29-427): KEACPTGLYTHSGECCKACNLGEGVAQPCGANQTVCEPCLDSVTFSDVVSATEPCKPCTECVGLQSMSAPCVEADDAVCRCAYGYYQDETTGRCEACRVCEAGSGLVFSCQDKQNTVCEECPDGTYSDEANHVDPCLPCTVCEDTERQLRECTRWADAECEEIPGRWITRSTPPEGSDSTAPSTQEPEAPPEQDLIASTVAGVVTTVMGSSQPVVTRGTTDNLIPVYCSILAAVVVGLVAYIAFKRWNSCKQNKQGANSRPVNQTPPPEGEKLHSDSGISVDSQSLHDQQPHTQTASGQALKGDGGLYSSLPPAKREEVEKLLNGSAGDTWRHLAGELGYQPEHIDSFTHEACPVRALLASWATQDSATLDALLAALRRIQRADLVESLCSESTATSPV

[2] = system: pyridoxine toxicity; details: cited from earlier work
[3] = system: cisplatinum induced neuropathy; experiment: Cisplatinum induced neuropathy in adult rats, H-wave sensory conduction velocity; assay type: in vivo, rat; details: 1 mg/kg three times per week subcutaneously for four weeks, continued cisplatinum
Method: In order to create an animal model of cisplatinum induced neuropathy, adult rats were dosed with cisplatinum twice a week for sixteen weeks with 1 mg/kg intraperitoneally (IP). At this point, rats were split into four groups. All four groups continued receiving cisplatinum twice weekly. […] The NT-3 doses were given subcutaneously, while the Mabs and saline were administered IV. This treatment regime was continued for an additional four weeks, for a total of twenty weeks of cisplatinum administration.

[4] = system: cisplatin sensory neuropathy; details: rats, cited from earlier work
[5] = target: T2, trkC L284E (Homo sapiens, UniProt Q16288, L315E/S70N); experiment: Binding to trkC single amino acid mutants (EC50 ratio); details: NB = no binding observed
T2 construct: made in house
From the text: (§1) Site-directed mutagenesis approach was used to determine the contribution of selected individual amino acid residues of domain 5 in the recognition by anti-trkC antibodies. […] A total of 26 single amino acid mutations were made and evaluated for their effect on binding to anti-trkC monoclonal antibodies. The values shown in Table 5 represent the ratio of binding to anti-trkC antibody of mutant vs wildtype trkC.

[6] = system: trkC N335A; set-up: species or system human; details: NB = no binding observed
From the text: (§2) A total of 26 single amino acid mutations were made and evaluated for their effect on binding to anti-trkC monoclonal antibodies.

[7] = target: T3, trkC L286H (Homo sapiens, UniProt Q16288, L317H/S70N); experiment: Binding to trkC single amino acid mutants (EC50 ratio); details: NB = no binding observed
T3 construct: made in house
From the text: as §1

[8] = target: T4, trkC H318A (Homo sapiens, UniProt Q16288, H349A/S70N); experiment: as above
T4 construct: made in house
From the text: as §2

[9] = target: T5, trkC E287K (Homo sapiens, UniProt Q16288, E318K/S70N); experiment: as above; details: NB = no binding observed
T5 construct: made in house
From the text: as §1

[10] = target: T6, trkC R285A (Homo sapiens, UniProt Q16288, R316A/S70N); experiment: as above; details: NB = no binding observed
T6 construct: made in house
From the text: as §1

[11] = target: wildtype trkC (Homo sapiens, UniProt Q16288, S70N); experiment: as above; details: wildtype trkC (reference)
From the text: as §1

[12] = target: gD-trkC (Homo sapiens, UniProt Q16288); experiment: BIAcore surface plasmon resonance (SPR) affinity; assay type: binding
Method: Affinities of anti-trkC agonist monoclonal antibodies were determined using BIAcore-2000™ surface plasmon resonance (SPR) system (BIAcore, Inc., Piscataway, N.J.). CM5 biosensor chips were activated with N-ethyl-N′-(3-dimethylaminopropyl)-carbodiimide hydrochloride (EDC) and N-hydroxysuccinimide (NHS) according to the supplier's instructions. In the first series of binding experiments, the antigen, gD-tagged trkC, was diluted into 10 mM sodium acetate buffer (pH 4.8), and injected over the activated chip at a concentration of 0.09 mg/mL. Using variable exposure times, four ranges of antigen density were achieved: 14,000-17,000 response units (RU), 7000-9000 RU, 2000-3000 RU, and 400-600 RU. The chip was blocked with ethanolamine.
In the first series of kinetic measurements, anti-trkC antibodies (IgG's) were diluted into running buffer (PBS containing 0.05% Tween-20 and 0.01% sodium azide) and 0.03 mL (667 nM) was injected over the biosensor chip at 25° C. at a flow rate of 0.01 mL/min.
In a second series of experiments, the IgG's (0.1 mg/mL in 10 mM sodium acetate, pH 4.8) were immobilized as described above, except that antibody density was limited to 1000-2000 RU. Two-fold serial dilutions of gD-trkC in the range of […] to 29 nM were then injected over the biosensor chip for kinetics measurements as described above.
The dissociation phase of each kinetic curve were fit to a single exponential dissociation rate (koff), and these rates were used in the calculation of the association rate (kon) from the injection phase, using a simple 1:1 Langmuir binding model (Lofas & Johnsson, 1990).
Equilibrium dissociation constants, Kd's, from SPR measurements were calculated as the ratio koff/kon.
The affinities of anti-trkC antibodies for gD-trkC were measured in SPR kinetics experiments with either antigen or antibody immobilized. Apparent affinities determined from experiments using low densities of immobilized antigen (0.4 to 0.6 ng/mm2), were generally consistent with those determined in experiments using immobilized IgG (see Table 2). […] In some cases, no binding could be detected when trkC was injected over immobilized IgG. This may have occurred because immobilization of the IgG led to steric blocking of the antigen-binding site.

[13] = gD-trkC binding to immobilized IgG's (1000-3000 RU)

NGF: nerve growth factor, first identified member of the neurotrophin family
Kd [1]: 2 nM

NT-3: neurotrophin-3, the natural ligand of trkC receptor; positive control and comparator
behavioral and electrophysiological sequelae of pyridoxine toxicity (beam-walking, H waves) ([2]; NT-3 5-20 mg/kg/day, s.c., during chronic pyridoxine treatment): largely attenuated
degeneration of sensory fibers in the dorsal column of the spinal cord ([2]; NT-3 administration during chronic pyridoxine treatment): prevented degeneration of sensory fibers in the dorsal column of the spinal cord
sensory conduction velocity (H-wave) [3]: improvement of this lowered conduction velocity
cytoplasmic distribution of neurofilament protein in large sensory neurons and numbers of myelinated fibers in sural nerves ([4]; cisplatin): corrected
H-reflex-related sensory nerve conduction velocity reduced by cisplatin [4]: restored to normal levels

B1: BDNF: brain-derived neurotrophic factor, a neurotrophin (protein, UniProt P23560 19-247, looked up)
Neurotrophic factor BDNF …: APMKEANIRGQGGLAYPGVRTHGTLESVNGPKAGSRGLTSLADTFEHVIEELLDEDQKVRPNEENNKDADLYTSRVMLSSQVPLEPPLLFLLEEYKNYLDAANMSMRVRRHSDPARRGELSVCDSISEWVTAADKKTAVDMSGGTVTVLEKVPVSKGQLKQYFYETKCNPMGYTKEGCRGIDKRHWNSQCRTTQSYVRALTMDSKKRIGWRFIRIDTSCVCTLTIKRGR
Kd [1]: 2 nM

B2: Mab 2250: murine IgG1 agonist anti-trkC monoclonal antibody; hybridoma ATCC PTA-2149; heavy chain SEQ ID NO: 42, light chain SEQ ID NO: 49 (antibody)
heavy: NQVQLQQSGAELMQPGASVKISCKSTGYTFSNFWIEWVKQRPGHGLEWIGEILPGSDNTNYNEKFKGKATFTADTSSNTAYMQLSSLTSEDSAVYYCARKNRNYYGNYVVWGQGTLVTVSAC
light: NDIVMTQSPASLAVSLGQRATISYRASKSVSTSGYSYMHWNQQKPGQPPRLLIYLVSNLESGVPARFSGSGSGTDFTLNIHPVEEEDAATYYCQHIRELTRSARGQSWKKRC
modifications: Murine
ratio of binding of mutant vs wildtype trkC (EC50 divided by EC50 of wildtype trkC) [5]: 0.6
ratio of binding of mutant vs wildtype trkC (EC50 divided by EC50 of wildtype trkC) [6]: 0.5
ratio of binding of mutant vs wildtype trkC (EC50 divided by EC50 of wildtype trkC) [7]: 0.4
ratio of binding of mutant vs wildtype trkC (EC50 divided by EC50 of wildtype trkC) [8]: 1.0
ratio of binding of mutant vs wildtype trkC (EC50 divided by EC50 of wildtype trkC) [9]: 0.8
ratio of binding of mutant vs wildtype trkC (EC50 divided by EC50 of wildtype trkC) [10]: 2.6
ratio of binding of mutant vs wildtype trkC (EC50 divided by EC50 of wildtype trkC) [11]: 1.0
Kd ([12]; IgG's binding to immobilized gD-trkC (400-600 RU), read-out: Kd, Immobilized gD-trkC): 8.7 nM
Kd ([12]; Table 3, read-out: Affinity Kd): 8.7 nM
Kd ([12]; gD-trkC binding to immobilized IgG's (1000-3000 RU), read-out: Kd, Immobilized IgG): 28 nM

B3: Mab 2345: human IgG2 agonist anti-trkC monoclonal antibody; hybridoma ATCC PTA-2146; heavy chain SEQ ID NO: 47, light chain SEQ ID NO: 54 (antibody, listed as Homo sapiens, V domains shown)
VH: NQVQLQESGPGLVKPSQTLSLTCTVSGGSISSGGYYWSWIRQHPEKGLEWIGYIFYSGRTYYNPSLKSRVTISVDTSKNQFSLKLNSVTAADTAVYYCARERIAAAGADYYYNGLDVWGQGTTVTVSSC
VL: NEIVLTQSPGTLSLSPGERATLSCRASQSVSSNYLTWYQQKPGQAPRLLIYGASSRATGIPDRFSGSGSGTDFTLTISRLEPEDFAVYYCQQYGRSPPITFGQGTRLEIKRC
Kd, Immobilized IgG [12, 13]: NDB

B4: Mab 2349: human IgG4 agonist anti-trkC monoclonal antibody; hybridoma ATCC PTA-2153; heavy chain SEQ ID NO: 48, light chain SEQ ID NO: 55 (antibody, listed as Homo sapiens, V domains shown)
VH: B3 VH with G34Y, E45G, F55Y, R59S, V70L, N86S, A108T, D116A
VL: B3 VL with E2G, L22F, V30G, N33T, T36A
Kd, Immobilized IgG [12, 13]: NDB
